The results in this text go back to patent US7202050B2, “Methods for measuring phosphatase activity” (priority 2002, dated 2007).

This experiment concerns the target T1, V8 protease (Staphylococcus aureus, UniProt P0C1U8).
T1 construct: purchased CalBiochem (San Diego, Calif.)
In kind it is biochemical. Particulars: 30 μM peptide pre-incubated with 40 units CKII 18 hrs at 30° C. in absence of ATP; 1 unit V8 protease, room temperature, in less than three hours; HPLC (FIG. 3).

T1 sequence (P0C1U8 69-336): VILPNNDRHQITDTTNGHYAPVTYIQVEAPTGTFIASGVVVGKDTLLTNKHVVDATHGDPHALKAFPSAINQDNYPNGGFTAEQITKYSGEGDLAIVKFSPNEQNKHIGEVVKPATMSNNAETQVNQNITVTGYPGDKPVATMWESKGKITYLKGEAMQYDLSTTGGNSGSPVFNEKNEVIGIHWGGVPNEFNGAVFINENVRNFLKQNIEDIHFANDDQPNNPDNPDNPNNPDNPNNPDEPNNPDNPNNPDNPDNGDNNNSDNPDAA
Method: The peptide (30 μM) was incubated at room temperature with V8 protease (0.1 units) in a buffer containing 20 mM Tris-HCl, 50 mM KCl, 10 mM MgCl2, pH 7.5 (CKII buffer) and aliquots were removed at various time points and flash-frozen in a dry-ice/methanol bath. Products of the protease digestion were then separated on the HPLC column using a 0% to 50% acetonitrile/water gradient in the presence of 0.1% TFA. Peptide was detected using both absorbance at 250 nm and by fluorescence of the rhodamine label using 530 nm excitation and 590 nm emission filters.
Subsequently, 1 unit of V8 protease was added to each sample and the samples were incubated at room temperature. Aliquots were removed at various time points and flash-frozen in a dry-ice/methanol bath for HPLC analysis as described above.

Turning to “TMR-Asp-Glu-Ser-Glu-Glu-Glu-Asp-Lys(Nε-Flsn)-COOH (tetramethylrhodamine-DESEEEDK(fluorescein)-OH) [unphosphorylated peptide]”, the “peptide digested by V8 protease” value worked out at 80%.
